Source: patent publication US20230348614A1 (VISTERRA, published 2023)
Changes are numbered by the printed parent chain.

T1: CD138 on the surface of U266 cells (CD138+ human lymphoblastic myeloma cell line) (human, UniProt P18827 23-310)
T1 construct: whole, on cells; also called cell surface CD138; membrane CD138
T1 sequence (looked up): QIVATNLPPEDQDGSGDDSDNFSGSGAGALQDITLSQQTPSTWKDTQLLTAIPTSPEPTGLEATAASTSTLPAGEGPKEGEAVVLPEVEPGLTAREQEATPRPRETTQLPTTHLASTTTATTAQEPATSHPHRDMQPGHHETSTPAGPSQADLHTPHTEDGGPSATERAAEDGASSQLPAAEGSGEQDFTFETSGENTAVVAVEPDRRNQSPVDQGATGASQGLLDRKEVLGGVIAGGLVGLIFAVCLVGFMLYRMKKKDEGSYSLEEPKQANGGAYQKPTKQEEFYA

T2: Recombinant soluble human CD138 extracellular domain (analyte in SPR) (human, UniProt P18827 23-254)
T2 construct: extracellular domain; also called recombinant CD138 (the antigen)
T2 sequence (looked up): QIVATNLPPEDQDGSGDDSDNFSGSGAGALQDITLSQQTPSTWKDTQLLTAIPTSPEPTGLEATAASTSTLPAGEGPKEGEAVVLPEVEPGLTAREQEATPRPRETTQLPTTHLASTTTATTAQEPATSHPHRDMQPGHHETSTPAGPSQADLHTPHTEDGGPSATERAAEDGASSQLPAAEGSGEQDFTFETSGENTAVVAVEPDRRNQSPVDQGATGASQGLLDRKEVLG

T3: Biotinylated recombinant soluble human CD138 extracellular domain (Sino Biological, Cat. 11429-H08H) (human, UniProt P18827 18-251, biotin (EZ-Link NHS-SS-PEG4 Biotin) on primary amino groups of lysines, protein:biotin 1:20)
T3 construct: range 18-251; Bought reagent; The limits are printed as approximate; also called biotinylated CD138; recombinant CD138
T3 sequence (looked up): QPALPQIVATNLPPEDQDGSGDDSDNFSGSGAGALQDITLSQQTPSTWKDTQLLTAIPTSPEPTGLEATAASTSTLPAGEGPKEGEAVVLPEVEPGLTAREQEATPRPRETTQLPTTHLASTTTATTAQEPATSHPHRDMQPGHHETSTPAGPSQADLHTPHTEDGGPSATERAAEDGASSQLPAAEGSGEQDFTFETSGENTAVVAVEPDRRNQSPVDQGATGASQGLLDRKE

B1: Antibody 29-0 (antibody, V domains shown)
VH: EVQLVQSGAEVKKPGASVKVSCKASGYSFSSYYMHWVRQAPGQGLEWMGTIYPGASTTNYNQKFQGRVTMTVDTSTRTAYMELSSLRSEDTAVYYCADFVYWGQGTTVTVSS
VL: DIVMTQTPLSLSVTPGQPASISCKSSKSLLYKDGKTYLNWFLQKPGQSPQLLIYVVSTRASGVPDRFSGSGSGTDFTLKISRVEAEDVGVYYCQQLVEYPYTFGQGTKLEIK
notes: also called mAb 29-0
B2: Antibody Ab43 (antibody, V domains shown)
VH: B1 VH with Y52H, G54S, A55D
VL: B1 VL with N39L

Assays:
[1] = target: T1, CD138 on the surface of U266 cells …; experiment: flow cytometry on U266 cells at pH 6.0, MFI against antibody concentration (0.04-10 ug/mL shown)
Protocol: (§1) Antibody binding to membrane CD138 was evaluated using the CD138+ human lymphoblastic myeloma cell line (U266) and quantified by flow cytometry. Cells were grown in RPMI1640 with 10% FBS. […] Cells were washed (1X) with same pH-matched buffer (and as throughout the experiment) followed by incubation with secondary (detection) goat anti-human Fab( Jackson Immuno Research) conjugated with Alexa Fluor-488 for 30 minutes also at either pH 6.0 or 7.4. Cells were washed once more and resuspended in matching pH buffer and evaluated by flow cytometry. Antibody cell binding was reported as geometric mean fluorescence intensity (MFI). Dose-response curves were generated using GraphPad Prism. Binding data were plotted using nonlinear regression analysis and a 4-parameter curve fit.

[2] = target: T2, Recombinant soluble human CD138 …; experiment: SPR (Carterra LSA): antibody captured by anti-human IgG, CD138 as analyte, pH 6.0, 1:1 fit; pH 6.0, SPR
Source text: This method as described, immobilizes the target (recombinant CD138) through biotinylation-streptavidin capture. Such a method may, in principle, lead to biases in binding due to either chemical modification of the capture ligand and/or avidity effects due to immobilization of this ligand on the biosensor. Moreover, this method depends on diffusion-based principles of dissociation leading to non-equilibrium binding states. Surface plasmon resonance is an orthogonal, commonly used method for determining binding kinetics and deriving affinity values based on these parameters. In this method, antibodies were directly coupled to the sensor chip and probed with several concentrations of recombinant CD138 (the antigen) varying from 100 nM to 41 nM. This evaluation was completed under two different pH conditions, i.e., pH 6.0 and pH […].
Antibody-CD138 binding was evaluated on a Carterra LSA high throughput SPR instrument. Binding experiments were carried out using binding buffer comprising 100 mM sodium phosphate, 150 mM NaCl and 0.05% Tween-20 buffer. Buffers were adjusted to target pH of 7.4 and 6.0, by use of sodium hydroxide or HCL, respectively. All steps were also carried out independently at these respective buffer pHs. Antibodies were captured on the SPR (CMDP) chip using an anti-human IgG covalently coupled to the CMDP chip based on standard protocols, as described by the instrument manufacturer, and to create a uniform lawn on the chip surface at a target 25 nM anti-CD138 antibody concentration. Binding to CD138 was achieved by uniformly passing binding analyte with increasing concentrations of CD138 (41 nM-100 nM) for 15 minutes and allowing dissociation for 20 minutes. Analyte was flowed over the chip at a rate of 2 milliliters/minute. Raw binding data were processed using kinetics data analysis software also provided by the manufacturer (Carterra) following as 2X background subtraction that used the first six injections of buffer blanks and the internal machine reference controls. Kinetic data was analysed using a global fit and assuming a 1:1 binding interaction. Further analysis of individual binding curves (sensorgrams) with best fits were used to refine the calculation of kinetic parameters.

[3] = target: T1, CD138 on the surface of U266 cells …; experiment: flow cytometry on U266 cells at pH 6.5, MFI against antibody concentration (about 0.03-30 ug/mL)
[4] = target: T1, CD138 on the surface of U266 cells …; experiment: flow cytometry on U266 cells at pH 6, MFI against antibody concentration (about 0.03-30 ug/mL)
Protocol: as §1
(§2) Binding was evaluated as described.

[5] = target: T3, Biotinylated recombinant soluble human …; experiment: BLI (Octet): biotinylated CD138 (10 nM) on streptavidin tips, antibody 12.5 and 25 nM, pH 6.0, 1:1 fit
Protocol: Binding experiments were carried using assay buffer comprised of 100 mM Sodium Phosphate+ 150 mM NaCl + 0.02% Tween-20 and adjusted to target pH of 7.4, 6.0, 6.4, or 6 using appropriate ratios of monobasic and dibasic sodium phosphate buffer. 25 nM biotinylated CD138 was loaded onto Streptavidin capture Octet (SA) tips for 120 seconds (antigen loading step) followed by antibody binding for associated for 300 seconds (association step), and subsequently dissociation for 300 seconds (dissociation step). All steps were carried out at the respective target pH using the corresponding pH adjusted buffers.
Modifications to this protocol included lowering the loading concentration of biotinylated CD138 from 25 nM to 10 nM and varying the test antibody concentrations ranging from 25 nM down to 0.8 nM (as 2-fold dilutions). The rationale for doing so was to potentially reduce any target avidity effects while also looking at the analyte concentration dependency.
Data were analyzed for purposes of calculating approximate kinetic binding parameters and apparent binding affinities based on these rates. Data was fit assuming a 1:1 binding model.

[6] = target: T1, CD138 on the surface of U266 cells …; experiment: flow cytometry on U266 cells at pH 7, MFI against antibody concentration (about 0.03-30 ug/mL)
Protocol: as §1, §2

[7] = target: T1, CD138 on the surface of U266 cells …; experiment: flow cytometry on U266 cells at pH 6.0, MFI against antibody concentration (0.01-10 ug/mL)
Protocol: as §1

[8] = target: T1, CD138 on the surface of U266 cells …; experiment: flow cytometry on U266 cells at pH 7.4, MFI against antibody concentration (about 0.03-30 ug/mL)
Protocol: as §1, §2

| Binder | EC50 (read off the curve) [1] | Kd [2] | koff [2] | kon [2] | EC50 (read off the curve) [3] | EC50 (read off the curve) [4] | Kd [5] | koff [5] | kon [5] | EC50 (read off the curve) [6] | EC50 (read off the curve) [7] | EC50 (read off the curve) [8] |
| --- | --- | --- | --- | --- | --- | --- | --- | --- | --- | --- | --- | --- |
| B1 | ~0.6 mg/L | 0.028 µM | 0.0042 s⁻¹ | 150000 M⁻¹ s⁻¹ | ~0.9 mg/L | ~0.6 mg/L |  |  |  |  |  |  |
| B2 |  |  |  |  | ~0.7 mg/L | ~0.6 mg/L | 0.0065 µM | 0.0041 s⁻¹ | 630000 M⁻¹ s⁻¹ | ~0.9 mg/L | ~0.5 mg/L | ~1 mg/L |
